# Test results: article PMC8860598
# Like-named read-outs stand apart in the source and are kept apart here.
# T1: Sen1 HD T1623V (Saccharomyces cerevisiae, UniProt Q00416 1095-1905, T1623V)
# T1 sequence: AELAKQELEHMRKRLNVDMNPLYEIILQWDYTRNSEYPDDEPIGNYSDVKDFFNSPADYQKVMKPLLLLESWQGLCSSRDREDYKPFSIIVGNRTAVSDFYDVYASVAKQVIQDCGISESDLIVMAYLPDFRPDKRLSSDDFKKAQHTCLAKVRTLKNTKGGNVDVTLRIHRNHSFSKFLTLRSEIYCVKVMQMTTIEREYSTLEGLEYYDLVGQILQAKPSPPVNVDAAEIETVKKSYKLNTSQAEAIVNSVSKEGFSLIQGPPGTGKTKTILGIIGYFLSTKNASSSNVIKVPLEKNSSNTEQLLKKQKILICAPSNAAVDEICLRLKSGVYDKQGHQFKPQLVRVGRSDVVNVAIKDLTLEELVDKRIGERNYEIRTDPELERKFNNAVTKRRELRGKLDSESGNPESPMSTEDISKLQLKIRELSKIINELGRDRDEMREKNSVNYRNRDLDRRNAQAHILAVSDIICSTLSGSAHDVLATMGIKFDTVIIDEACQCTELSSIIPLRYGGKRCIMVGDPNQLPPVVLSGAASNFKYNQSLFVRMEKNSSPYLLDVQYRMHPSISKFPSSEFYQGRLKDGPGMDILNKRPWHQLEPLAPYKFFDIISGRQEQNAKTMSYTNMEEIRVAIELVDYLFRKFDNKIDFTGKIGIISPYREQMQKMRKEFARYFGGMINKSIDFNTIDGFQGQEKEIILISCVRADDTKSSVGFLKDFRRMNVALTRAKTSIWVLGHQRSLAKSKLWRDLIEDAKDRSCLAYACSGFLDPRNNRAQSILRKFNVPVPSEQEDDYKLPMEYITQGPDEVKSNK
# T2: Sen1 HD wt (Saccharomyces cerevisiae, UniProt Q00416 1095-1905)
# T2 sequence: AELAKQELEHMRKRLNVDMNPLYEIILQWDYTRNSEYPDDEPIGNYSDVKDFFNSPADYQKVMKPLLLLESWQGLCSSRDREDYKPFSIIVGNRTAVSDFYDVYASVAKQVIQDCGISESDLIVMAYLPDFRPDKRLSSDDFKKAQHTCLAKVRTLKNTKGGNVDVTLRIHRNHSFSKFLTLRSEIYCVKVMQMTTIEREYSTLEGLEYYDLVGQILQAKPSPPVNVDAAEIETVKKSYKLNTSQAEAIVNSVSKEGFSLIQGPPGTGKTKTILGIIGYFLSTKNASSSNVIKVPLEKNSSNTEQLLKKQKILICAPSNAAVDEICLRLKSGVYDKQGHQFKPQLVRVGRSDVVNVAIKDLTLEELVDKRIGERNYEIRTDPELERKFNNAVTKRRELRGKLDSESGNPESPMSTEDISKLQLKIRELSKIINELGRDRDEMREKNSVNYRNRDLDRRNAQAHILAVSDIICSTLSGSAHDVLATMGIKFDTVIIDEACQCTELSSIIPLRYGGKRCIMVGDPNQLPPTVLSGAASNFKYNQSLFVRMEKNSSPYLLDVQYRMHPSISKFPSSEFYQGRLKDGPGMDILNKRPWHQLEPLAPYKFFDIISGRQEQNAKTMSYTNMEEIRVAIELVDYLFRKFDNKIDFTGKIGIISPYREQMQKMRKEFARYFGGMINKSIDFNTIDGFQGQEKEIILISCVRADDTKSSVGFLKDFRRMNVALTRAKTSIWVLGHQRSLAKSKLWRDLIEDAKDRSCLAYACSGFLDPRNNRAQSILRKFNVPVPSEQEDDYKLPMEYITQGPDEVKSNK
# T3: Sen1 HD T1623E (Saccharomyces cerevisiae, UniProt Q00416 1095-1905, T1623E)
# T3 sequence: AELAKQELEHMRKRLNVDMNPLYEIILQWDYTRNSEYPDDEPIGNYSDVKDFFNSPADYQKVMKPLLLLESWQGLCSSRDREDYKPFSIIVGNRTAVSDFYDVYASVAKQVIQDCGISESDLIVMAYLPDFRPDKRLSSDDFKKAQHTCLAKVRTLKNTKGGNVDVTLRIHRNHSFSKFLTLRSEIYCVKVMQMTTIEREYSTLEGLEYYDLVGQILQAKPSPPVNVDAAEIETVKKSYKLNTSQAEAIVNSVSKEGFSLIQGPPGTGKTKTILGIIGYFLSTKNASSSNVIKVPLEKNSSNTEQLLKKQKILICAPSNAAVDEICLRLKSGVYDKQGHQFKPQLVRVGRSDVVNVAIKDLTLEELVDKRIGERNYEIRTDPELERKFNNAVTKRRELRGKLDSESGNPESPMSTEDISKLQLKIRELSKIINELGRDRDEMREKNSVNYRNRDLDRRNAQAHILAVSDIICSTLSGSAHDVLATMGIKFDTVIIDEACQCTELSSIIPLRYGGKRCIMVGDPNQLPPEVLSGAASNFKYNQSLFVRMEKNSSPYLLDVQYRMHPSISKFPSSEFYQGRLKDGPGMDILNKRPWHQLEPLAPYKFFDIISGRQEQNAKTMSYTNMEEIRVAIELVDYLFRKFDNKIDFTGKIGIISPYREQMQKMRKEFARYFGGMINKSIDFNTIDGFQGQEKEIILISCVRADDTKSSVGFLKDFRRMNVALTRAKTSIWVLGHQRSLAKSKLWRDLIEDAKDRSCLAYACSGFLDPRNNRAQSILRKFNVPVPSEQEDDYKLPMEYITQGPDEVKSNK
# Columns and labels:
# Assay in all cases: EMSA
# [1] = target: T1, Sen1 HD T1623V
# [2] = target: T2, Sen1 HD wt
# [3] = target: T3, Sen1 HD T1623E
# [4] = target: T1, Sen1 HD T1623V; remark: listed apart in the source
# [5] = target: T2, Sen1 HD wt; remark: listed apart in the source
binder,measurement,setting,value
UUCAUUUCAGACCAGCACCCACUCACUACAACUCACGACCAGGC (ssRNA) [DL3508 (called 40-mer RNA; printed sequence is 44 nt)],Kd,[1],8.1 nM
same,Kd,[2],6.4 nM
same,Kd,[3],100 nM
same,Kd,[4],12.7 nM
same,Kd,[5],13.1 nM
